# According to the supplement of paper PMC12764529:
# ± gives the half width of the 95% confidence interval.
# Experiment: folding stability dG unfold (combined trypsin and chymotrypsin); higher = more stable
# In short: (§1)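 How resistant each design was to proteolysis was captured as K50, inferred by Bayesian fitting of sequencing counts. Unfolding free energy was then derived relative to a sequence-predicted unfolded-state K50 and a shared folded-state K50, per protease or combined. Digestion used trypsin and chymotrypsin at 11 threefold-diluted concentrations plus a no-protease condition, on mini-proteins under 80 residues without cysteine in a PA-tagged cDNA display construct. Designs were kept only when AlphaFold2 dimer inter-PAE was above 15.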
row,Sequence,folding stability dG unfold [kcal/mol]
1,SAGGSAGGMIIRVEFKNGEVKTFVVKSPEEAKKKLAESLGLKEDEIPLDEIKSVEILNLDEALSSAGGSAGG [r6_586_TrMRF],3.91 ± 0.073
2,SAGGEEEKVVLTPEEIERLLKELAEALGLEVTITEIEVEEDYVTITVEIKVDGKTLTLTLKLRIEPEPSAGG [r13_652_TrROS_Hall],5.14 ± 0.36
3,SSSPLPSPVTLPNGTVVYYFPDTGLVLTLDPKTGTGTVTYVTTDPQGNPTFFPSTVTFDPPTGKVVEVVASA [r9_122_JUSTAS],2.39 ± 0.079
4,SAGGSAGGSEPVTVMFWFDSPEEIDELIDELKGAGIKKVEMEPFPGRYWLTITVDGAEIHIMFSAGGSAGGS [r12_846_TrROS],3.29 ± 0.14
5,SAGMVTISVTRPSSGTYVLNISNPLTGETETITLSTADPAAFKATAEAIAAELEAKGYPVKINLTPTAGSAG [r5_815_JUSTAS],3.73 ± 0.048
6,SKVKVYIIKKDKVIPEIELDVSSVEEAVEKVLEYISKLPKNTPYLVRIEVEKYDPATGKKSYGTLLLPVGSA [r9_245_TrMRF],4.05 ± 0.1
7,SAGGPPYYMIKIRYPDNGKEYEIPPGIKVHRDPNNEVYIMFRSPAAADDLVDEIAPTNGLRVEIEPFSAGGS [r8_131_TrROS],0.915 ± 0.3
8,SAGGSAGGSKPPVKTIPRWIPFPPGQTPNELVDELRKLFPPGMEVDVEYDPEPGYVRVSITFRSAGGSAGGS [r12_12_TrROS],2.06 ± 0.097
9,SAGGSAGGMSITINLPNGVTLTITTGDNDVYPITITYPGGETKTLTVTEPLSSISQVISNIVNSSAGGSAGG [r6_27_JUSTAS],3.33 ± 0.042
10,SAGGSAGGSDPLVSFPLEVELPGGEKVELHFIPGPRLVIARFPDRPVLFYTDGDGVITRVDPISAGGSAGGS [r12_47_TrMRF],0.0465 ± 0.064
11,SAGGSAGGSAGGEIVIPVDGKLVVIKLKNGKKITVPVEDLKELLKKLGIKNAKIEVVPAKSAGGSAGGSAGG [r7_235_TrROS_Hall],2.56 ± 0.17
12,SAGGSAGGSWYLRIEYMNGKEREFPFPPDMPGQPAEEIADKLGSPNMKVEFYDPEGEPREFDISAGGSAGGS [r12_411_TrROS],0.726 ± 0.18
13,SAGGSAGGMPVTPEEARAIAEELRAELGATTVEVEVSPDGRTVTITITSSEDGKVLTRTIEFEASAGGSAGG [r6_550_JUSTAS],2.29 ± 0.059
14,SAGGSMSLEEIKKLEIELEKEEGEKLKAEVTVLPDGKLFVRVNGKLFEIDLKTGKIVEVKELPPDESAGGSA [r2_374_TrROS_Hall],2.47 ± 0.21
15,SAGMKIEPTKDYVLITVNGPEKALETIKKLKELIPNPEILDIKPHPHPNGENPWTIIIPTKNIPPEVLFSAG [r5_857_TrMRF],0.68 ± 0.15
16,SAGGSMVTLTTTETSVEGERTVEVSTLGSKTVTTTFEPESDSSTVTTSPVPPVAGPELLALNLLLLSAGGSA [r2_482_JUSTAS],0.189 ± 0.082
17,SAGGSAGGPIKIKAKIFDPNGQPQEHEGEIDNPNGEPYKIKIDIFVLPDPDDEPNLVINVEIEPSAGGSAGG [r6_335_TrROS],2.77 ± 0.13
18,SAGGSAGGSAGGKEYKVVEFEVLLEDPEPVKAVALIDPDGPVRVFLGDKVYTFKRDELGSAGGSAGGSAGGS [r10_649_TrMRF],0.766 ± 0.073
19,SAGGSAGGSAGGKKIIIVVPKEEMTEEELKKLIEELPPGEEIEIEIIVVPPPPPPPKEKKSAGGSAGGSAGG [r7_979_TrROS_Hall],1.45 ± 0.27
20,SGMTSSFEVSPVGDILVVTVSLHFPGLGLSSTASATQDPSSDSMSLDLTIPFPPEDLAPLSLSLSLKPPESA [r9_887_JUSTAS],2.87 ± 0.23
21,SAPDAKVEFNPKLVRKGDELLLLVEVKLSPDVDEVVVEIEVTGPDGSPFKVEAVQFPETGTVLVKAVLPASA [r9_159_TrMRF],1.75 ± 0.094

row,Sequence,folding stability dG unfold [kcal/mol]
1,SAGGMIPPEELAARAEAVREAAPASGEVVRTTVVLPSPGLVTRVDLVYEPGAGRITVESVSEVPPELLSAGG [r13_37_JUSTAS],0.461 ± 0.046
2,SAGGSAGGSPKIELLDSRPRPDGSLVELLAIEAEDEIRLLVIVTHPDGVDIRFFEPEYPDLDLSAGGSAGGS [r12_315_TrMRF],0.279 ± 0.3
3,SAGGVYVIKIKFEFGDGLKAELFIMFQSWEQAKEQAENLARNHGLRIDEIEVVPIKPMPPPDPDDQKSAGGS [r8_364_TrROS],3.63 ± 0.29
4,SAGGDLLKELARELGFNVEIERDPDDGTIRITIRPPEGHYVTITIKIDYDPENGKLKLEIDEIKVSPPSAGG [r13_936_TrROS],3.7 ± 0.17
5,SAGGMKTITLEEAKALAEKAAEKGETVEIEVTLPDGTVVKFKVDAKTKKVELVEVKKLPAPPEDPEKKSAGG [r13_839_TrROS_Hall],2.68 ± 0.13
6,SAGGSAGGSSMTLTIEPPEEGPPLLVEVDETEEIVTGDGTPVKVTTLKITIGEEEMTLTVTTLSAGGSAGGS [r20_39_JUSTAS],2.1 ± 0.15
7,SAGGSAGGSAGGGMTTTTETTTTTFPTNNLTTTTTTTTTLETSTGTTLSSTSTTTVTASSAGGSAGGSAGGS [r10_469_JUSTAS],1.2 ± 0.072
8,SAGMVIAKVTVKLPNGETKTFVIEAESPEELEEQIIKELEKEYGVSPEEFPIVEIKVEFYDPEKGGLLLSAG [r5_482_TrMRF],2.2 ± 0.11
9,SSIPLDVPPGERVVRKGVFPDGSELTATYDPTTGRWTVTYYPPDGSVRTSVVPGAALASLPPGFTETRLESA [r9_1110_JUSTAS],2.02 ± 0.14
10,SAGGSAGGKTLELEVEALDPITGEPYKVKIIYDPETGTATILVTHPNGKKSLFTVPAGEALKLLSAGGSAGG [r6_219_TrMRF],3.28 ± 0.13
11,SAKKVKPIAKLTITDENGNTYEITVTVKEVDGKLVVEAEVYNKDGELVARVTAVFDNGKLVAVSIELLPSAG [r14_828_TrROS_Hall],2.8 ± 0.17
12,SAGGMIEVTIPLEEYFDENGNPTEEAKKKIEEAKKKAEELKKKGEPAEVKVTVVEPEPYVGPDNPELVSAGG [r13_731_JUSTAS],0.652 ± 0.28
13,SAGGSAGGSAGGFNIKLDVEIDPENYVIKNKLEVRDGGEERRFEMWIPIRVPPADPDDPSAGGSAGGSAGGS [r10_1049_TrROS],0.852 ± 0.21
14,SAGGSASIPEKIAEELKEKYGVTEIKILSVDPNGIIKVELKSIEKNEGKLIEKTYKVTVKVPKNLLSAGGSA [r15_646_JUSTAS],2.14 ± 0.078
15,SAGGGSSMPVPVRVAEFNVPDSRPEELIERAKELLEADEIDVLVVPSPAAQEALKAAFPDFPVPVLVRSAGG [r13_353_JUSTAS],-0.459 ± 0.11
16,SVKTSSSMAPPDRIVLKITDPETDKVTTITVPLDLPEDEPVAVHDPEAPSERTVAEIKALAEAGKSVSGLSA [r9_250_JUSTAS],-0.142 ± 0.18
17,SAGEPIRIKIMIMNPDGKLRPIVEIPIPPDDIKEIEIKDDSIEIELPGDGKTLMFRINNYPIMIQIEDSAGG [r19_408_TrROS],2.77 ± 0.11
18,SAGGSAGGSAGGDNRLPIPVKTPVVVVPADEAREEIRATLPPDAYRVEEERGDYVTISLGSAGGSAGGSAGG [r7_670_JUSTAS],0.847 ± 0.049
19,SAGGSAGGMKAVITQPPDGTATVEIYDETTGKTTTKTIPADQPEEIEALIAGKVDEVTTTPAPASAGGSAGG [r6_640_JUSTAS],1.76 ± 0.095
20,SAGGSAAPPVTVEVLPDGRIVITRGDAVASSVTPVPPDATITATFPATGETVTITRRAPEVTVTPASAGGSA [r15_235_JUSTAS],0.835 ± 0.097
21,SAGGSAGGSAGGSASMSVTLERLPNGTVVKITTKSVDPSTGSVDYKPSVEKIPPGVALDSAGGSAGGSAGGS [r4_72_JUSTAS],-0.515 ± 0.28

# Experiment: folding stability dG unfold from trypsin proteolysis; higher = more stable
# In short: as §1
row,Sequence,folding stability dG unfold [kcal/mol]
1,SAGGSAGGMIIRVEFKNGEVKTFVVKSPEEAKKKLAESLGLKEDEIPLDEIKSVEILNLDEALSSAGGSAGG [r6_586_TrMRF],3.35 ± 0.1
2,SAGGEEEKVVLTPEEIERLLKELAEALGLEVTITEIEVEEDYVTITVEIKVDGKTLTLTLKLRIEPEPSAGG [r13_652_TrROS_Hall],4 ± 0.42
3,SSSPLPSPVTLPNGTVVYYFPDTGLVLTLDPKTGTGTVTYVTTDPQGNPTFFPSTVTFDPPTGKVVEVVASA [r9_122_JUSTAS],0.904 ± 0.058
4,SAGGSAGGSEPVTVMFWFDSPEEIDELIDELKGAGIKKVEMEPFPGRYWLTITVDGAEIHIMFSAGGSAGGS [r12_846_TrROS],2.45 ± 0.067
5,SAGMVTISVTRPSSGTYVLNISNPLTGETETITLSTADPAAFKATAEAIAAELEAKGYPVKINLTPTAGSAG [r5_815_JUSTAS],3.6 ± 0.063
6,SKVKVYIIKKDKVIPEIELDVSSVEEAVEKVLEYISKLPKNTPYLVRIEVEKYDPATGKKSYGTLLLPVGSA [r9_245_TrMRF],2.76 ± 0.048
7,SAGGPPYYMIKIRYPDNGKEYEIPPGIKVHRDPNNEVYIMFRSPAAADDLVDEIAPTNGLRVEIEPFSAGGS [r8_131_TrROS],0.945 ± 0.23
8,SAGGSAGGSKPPVKTIPRWIPFPPGQTPNELVDELRKLFPPGMEVDVEYDPEPGYVRVSITFRSAGGSAGGS [r12_12_TrROS],2.19 ± 0.042
9,SAGGSAGGMSITINLPNGVTLTITTGDNDVYPITITYPGGETKTLTVTEPLSSISQVISNIVNSSAGGSAGG [r6_27_JUSTAS],3.38 ± 0.069
10,SAGGSAGGSDPLVSFPLEVELPGGEKVELHFIPGPRLVIARFPDRPVLFYTDGDGVITRVDPISAGGSAGGS [r12_47_TrMRF],0.337 ± 0.059
11,SAGGSAGGSAGGEIVIPVDGKLVVIKLKNGKKITVPVEDLKELLKKLGIKNAKIEVVPAKSAGGSAGGSAGG [r7_235_TrROS_Hall],1.8 ± 0.088
12,SAGGSAGGSWYLRIEYMNGKEREFPFPPDMPGQPAEEIADKLGSPNMKVEFYDPEGEPREFDISAGGSAGGS [r12_411_TrROS],0.589 ± 0.071
13,SAGGSAGGMPVTPEEARAIAEELRAELGATTVEVEVSPDGRTVTITITSSEDGKVLTRTIEFEASAGGSAGG [r6_550_JUSTAS],2.25 ± 0.091
14,SAGGSMSLEEIKKLEIELEKEEGEKLKAEVTVLPDGKLFVRVNGKLFEIDLKTGKIVEVKELPPDESAGGSA [r2_374_TrROS_Hall],2.49 ± 0.19
15,SAGMKIEPTKDYVLITVNGPEKALETIKKLKELIPNPEILDIKPHPHPNGENPWTIIIPTKNIPPEVLFSAG [r5_857_TrMRF],0.655 ± 0.042
16,SAGGSMVTLTTTETSVEGERTVEVSTLGSKTVTTTFEPESDSSTVTTSPVPPVAGPELLALNLLLLSAGGSA [r2_482_JUSTAS],0.291 ± 0.079
17,SAGGSAGGPIKIKAKIFDPNGQPQEHEGEIDNPNGEPYKIKIDIFVLPDPDDEPNLVINVEIEPSAGGSAGG [r6_335_TrROS],1.38 ± 0.11
18,SAGGSAGGSAGGKEYKVVEFEVLLEDPEPVKAVALIDPDGPVRVFLGDKVYTFKRDELGSAGGSAGGSAGGS [r10_649_TrMRF],-0.081 ± 0.071
19,SAGGSAGGSAGGKKIIIVVPKEEMTEEELKKLIEELPPGEEIEIEIIVVPPPPPPPKEKKSAGGSAGGSAGG [r7_979_TrROS_Hall],0.385 ± 0.077
20,SGMTSSFEVSPVGDILVVTVSLHFPGLGLSSTASATQDPSSDSMSLDLTIPFPPEDLAPLSLSLSLKPPESA [r9_887_JUSTAS],2.61 ± 0.12
21,SAPDAKVEFNPKLVRKGDELLLLVEVKLSPDVDEVVVEIEVTGPDGSPFKVEAVQFPETGTVLVKAVLPASA [r9_159_TrMRF],1.33 ± 0.078
